Measured values taken from patent US20200362323.

Tests used:
Assay in all cases: cell_activity
[1] = system: mouse TRB1-TALEN right (artificial (Xanthomonas TALE-FokI)?); settings: SSA reporter assay in HEK293T, pair with left TALEN; site given as top strand
[2] = system: mouse TRB1-TALEN left (artificial (Xanthomonas TALE-FokI)?); settings: SSA reporter assay in HEK293T, pair with right TALEN
[3] = system: mouse TRB2-TALEN left (artificial (Xanthomonas TALE-FokI)?); settings: SSA reporter assay in HEK293T, pair with right TALEN
[4] = system: mouse TRA2-TALEN left (artificial (Xanthomonas TALE-FokI)?); settings: SSA reporter assay in HEK293T, pair with right TALEN
[5] = system: mouse TRA2-TALEN right (artificial (Xanthomonas TALE-FokI)?); settings: SSA reporter assay in HEK293T, pair with left TALEN; site given as top strand
[6] = system: mouse TRB2-TALEN right (artificial (Xanthomonas TALE-FokI)?); settings: SSA reporter assay in HEK293T, pair with left TALEN; site given as top strand

With “AAAAGCAGAGATTGCAAACA (double strand) [mouse TRB1 right target]” as the sequence, how does the activity (fold vs ZFA36) [1] read?
The activity (fold vs ZFA36) was 3.79.

For “TGACTCCACCCAAGGTCTCC (double strand) [mouse TRB1 left target]”, which activity (fold vs ZFA36) [2] is on record?
The activity (fold vs ZFA36) was 3.79.

Which activity (fold vs ZFA36) [3] does the source give for “TGTGCTTGGCCAGGGGCTTC (double strand) [mouse TRB2 left target]” here?
The activity (fold vs ZFA36) was 3.41.

How did the activity (fold vs ZFA36) [4] turn out when “TCTGCCTGTTCACCGACT (double strand) [mouse TRA2 left target]” was run?
Its activity (fold vs ZFA36) is 3.09.

For “AATGTGCCGAAAACCATGGA (double strand) [mouse TRA2 right target]”, which activity (fold vs ZFA36) [5] is on record?
The activity (fold vs ZFA36) was 3.09.

With “GGAGCTGAGCTGGTGGGTGA (double strand) [mouse TRB2 right target]” as the sequence, how does the activity (fold vs ZFA36) [6] read?
The activity (fold vs ZFA36) was 3.41.
